The target in one assay is HLA-A*69:01. In words: IEDB peptide-MHC binding, purified MHC/direct/fluorescence; filed as Kd, often an IC50 or EC50 that approximates it; ≥ and ≤ were set here for values at or beyond the usual limits of such assays.
The next assay addresses HLA-B*07:02. The description is as above.
Assay [1] concerns the target HLA-B*15:01. Described as above.
A further assay deals with HLA-B*44:02. The description is as above.
Assay [2] deals with HLA-A*01:01. The description is as above.
Another assay addresses HLA-A*24:02. Described as above.
A further assay has as its target HLA-B*40:01. The assay is described as above.
Assay [3] deals with HLA-B*27:05. Described as above.
The next assay deals with HLA-A*03:01. The description is as above.
Another assay concerns the target HLA-B*58:01. The assay is described as above.
A further assay deals with HLA-A*02:01. Described as above.
Assay [4] concerns the target HLA-A*11:01. Described as above.
The target of assay [5] is HLA-B*15:17. Briefly: IEDB peptide-MHC binding, purified MHC/competitive/fluorescence; filed as Kd, often an IC50 or EC50 that approximates it; ≥ and ≤ were set here for values at or beyond the usual limits of such assays. The settings on record: source organism: Human immunodeficiency virus 1.
A further assay has as its target HLA-A*26:02. The description is as above. To be noted: source organism: Human immunodeficiency virus 1.
Assay [6] deals with HLA-B*18:01. The assay is described as above. To be noted: source organism: Human immunodeficiency virus 1.
Assay [7] addresses HLA-A*01:01. The assay is described as above. To be noted: source organism: Human immunodeficiency virus 1.
For the next assay, the target named is HLA-A*02:03. The description is as above. The settings on record: source organism: Human immunodeficiency virus 1.
In assay [8] the target is HLA-A*30:01. The assay is described as above. The settings on record: source organism: Human immunodeficiency virus 1.
Assay [9] has as its target HLA-B*57:01. The description is as above. The settings on record: source organism: Human immunodeficiency virus 1.
Assay [10] deals with HLA-A*11:01. The description is as above. The settings on record: source organism: Human immunodeficiency virus 1.
Assay [11] addresses HLA-A*02:06. The description is as above. To be noted: source organism: Human immunodeficiency virus 1.
Assay [12] deals with HLA-B*27:05. The assay is described as above. The settings on record: source organism: Vibrio vulnificus YJ016.
In assay [13] the target is HLA-B*15:17. In words: IEDB peptide-MHC binding, purified MHC/direct/fluorescence; filed as Kd, often an IC50 or EC50 that approximates it; ≥ and ≤ were set here for values at or beyond the usual limits of such assays. To be noted: source organism: Mycobacterium tuberculosis.
The target in assay [14] is HLA-B*18:01. The assay is described as above.
The target in a further assay is HLA-B*51:01. The description is as above. To be noted: source organism: Mycobacterium tuberculosis.
In another assay the target is HLA-A*31:01. The description is as above.
The target of the next assay is HLA-B*48:01. The assay is described as above. To be noted: source organism: Mycobacterium tuberculosis.
The target in assay [15] is HLA-A*30:01. The description is as above. To be noted: source organism: Mycobacterium tuberculosis str. Haarlem.
Assay [16] deals with HLA-B*57:01. The assay is described as above. To be noted: source organism: Mycobacterium tuberculosis.
In another assay the target is HLA-B*38:01. The assay is described as above. The settings on record: source organism: Mycobacterium tuberculosis str. Haarlem.
For a further assay, the target named is HLA-B*39:01. Described as above. The settings on record: source organism: Mycobacterium tuberculosis str. Haarlem.
In a further assay the target is HLA-B*46:01. The assay is described as above. The settings on record: source organism: Mycobacterium tuberculosis.
For assay [17], the target named is HLA-A*02:06. The assay is described as above. To be noted: source organism: Mycobacterium tuberculosis str. Haarlem.
Another assay concerns the target HLA-B*08:02. Described as above.
A further assay has as its target HLA-B*15:42. In words: IEDB peptide-MHC binding, purified MHC/competitive/fluorescence; filed as Kd, often an IC50 or EC50 that approximates it; ≥ and ≤ were set here for values at or beyond the usual limits of such assays. To be noted: source organism: Mycobacterium tuberculosis C.
A further assay addresses HLA-B*45:06. The description is as above. The settings on record: source organism: Mycobacterium tuberculosis C.
The target of another assay is HLA-A*32:07. The assay is described as above. The settings on record: source organism: Mycobacterium tuberculosis C.
The next assay deals with HLA-B*83:01. The description is as above. The settings on record: source organism: Mycobacterium tuberculosis C.
Assay [18] concerns the target HLA-B*15:01. The description is as above. The settings on record: source organism: Human immunodeficiency virus 1.
Another assay has as its target HLA-B*15:09. In words: IEDB peptide-MHC binding, purified MHC/direct/fluorescence; filed as Kd, often an IC50 or EC50 that approximates it; ≥ and ≤ were set here for values at or beyond the usual limits of such assays. To be noted: source organism: Vibrio cholerae V52.
In another assay the target is HLA-B*08:01. The assay is described as above. The settings on record: source organism: Vibrio cholerae V52.
Where [19] appears, read: source organism: Vibrio parahaemolyticus.
Where [20] appears, read: source organism: Mycobacterium tuberculosis.
Setting [21] is: source organism: Vibrio cholerae.

The source of these data is the Immune Epitope Database (IEDB).

pKd: −log10 of the molar value.

For the sequence ISDPAFKVF, the pKd with HLA-A*69:01 (setting [19]) is no more than 4.70; with HLA-B*07:02 (setting [19]) it was no more than 4.70; in the assay with HLA-B*15:01 [1] (setting [19]), 6.20; in the assay with HLA-B*44:02 (setting [19]), no more than 4.70; with HLA-A*01:01 [2] (setting [19]), no more than 4.70; with HLA-A*24:02 (setting [19]) it was no more than 4.70. The negative-log Kd (pKd) with HLA-B*40:01 (setting [19]) is no more than 4.70; with HLA-B*27:05 [3] (setting [19]), no more than 4.70; with HLA-A*03:01 (setting [19]) it was no more than 4.70; in the assay with HLA-B*58:01 (setting [19]), 7.76; in the assay with HLA-A*02:01 (setting [19]) it was no more than 4.70; with HLA-A*11:01 [4] (setting [19]) it was no more than 4.70.
As for KSLFNTIATLY, the pKd in the assay with HLA-B*15:17 [5] is 8.66; with HLA-A*26:02 it was no more than 4.70; in the assay with HLA-B*18:01 [6] it was 6.55; in the assay with HLA-A*01:01 [7] it was 5.99; with HLA-A*02:03, 5.72; with HLA-A*30:01 [8], no more than 4.70. The pKd was 6.94 with HLA-B*57:01 [9], 6.96 with HLA-A*11:01 [10] and 6.60 with HLA-A*02:06 [11].
QQYTDEAPY: the pKd in the assay with HLA-B*27:05 [12] is no more than 4.70.
Regarding RGRIGRTYL, the negative logarithm of the Kd (pKd) in the assay with HLA-A*69:01 (setting [20]) is no more than 4.70; in the assay with HLA-B*07:02 (setting [20]), 8.52; in the assay with HLA-B*15:17 [13] it was 7.16; in the assay with HLA-B*15:01 [1] (setting [20]) it was no more than 4.70; with HLA-B*18:01 [14] (setting [20]) it was no more than 4.70; with HLA-A*01:01 [2] (setting [20]), no more than 4.70. The negative-log Kd (pKd) in the assay with HLA-B*40:01 (setting [20]) is no more than 4.70; with HLA-A*03:01 (setting [20]), no more than 4.70; with HLA-B*51:01 it was no more than 4.70; with HLA-A*31:01 (setting [20]), no more than 4.70; in the assay with HLA-B*48:01, 5.52; with HLA-A*30:01 [15] it was 7.64. Moreover, the pKd in the assay with HLA-B*57:01 [16], with HLA-B*58:01 (setting [20]), with HLA-B*38:01, with HLA-B*39:01, with HLA-B*46:01 and with HLA-A*02:01 (setting [20]) was no more than 4.70 throughout. Also, the pKd with HLA-A*11:01 [4] (setting [20]), with HLA-A*02:06 [17] and in the assay with HLA-B*08:02 (source organism: Mycobacterium tuberculosis str. Haarlem) was no more than 4.70 throughout.
On to RIRAANLPI, for which the negative logarithm of the Kd (pKd) is no more than 5.30 with HLA-B*15:42, no more than 5.30 in the assay with HLA-B*45:06, 7.48 in the assay with HLA-A*32:07 and no more than 5.30 with HLA-B*83:01.
Take RSLFNTIATLY: the pKd was 8.52 with HLA-B*15:17 [5]; 6.15 with HLA-B*15:01 [18]; 5.67 with HLA-A*26:02; 7.05 with HLA-B*18:01 [6]; 5.90 with HLA-A*01:01 [7]; 6.14 in the assay with HLA-A*02:03. The negative-log Kd (pKd) with HLA-A*30:01 [8] is no more than 4.70; with HLA-B*57:01 [9], 6.84; with HLA-A*11:01 [10], 6.59; in the assay with HLA-A*02:06 [11], 6.69.
As to RVHGATVFK, the negative logarithm of the Kd (pKd) with HLA-A*69:01 (setting [21]), with HLA-B*07:02 (setting [21]), in the assay with HLA-B*15:01 [1] (setting [21]), in the assay with HLA-B*15:09, with HLA-B*44:02 (setting [21]) and in the assay with HLA-B*08:01 was no more than 4.70 in each case. In addition, the negative-log Kd (pKd) in the assay with HLA-B*18:01 [14] (setting [21]) is no more than 4.70; with HLA-A*01:01 [2] (setting [21]) it was no more than 4.70; with HLA-A*24:02 (setting [21]) it was no more than 4.70; with HLA-B*40:01 (setting [21]), no more than 4.70; in the assay with HLA-B*27:05 [3] (setting [21]), no more than 4.70; with HLA-A*03:01 (setting [21]), 6.60. The negative logarithm of the Kd (pKd) is 7.23 with HLA-A*31:01 (setting [21]); no more than 4.70 with HLA-B*58:01 (setting [21]); no more than 4.70 with HLA-A*02:01 (setting [21]); 7.33 with HLA-A*11:01 [4] (setting [21]); no more than 4.70 in the assay with HLA-B*08:02 (source organism: Vibrio cholerae V52).
